Assay results from patent US11466286B2, “Methods and compositions for conferring and/or enhancing herbicide tolerance using protoporphyrinogen oxidase or variant thereof” (FarmHannong Co., Ltd., priority 2016, dated 2022).

System: PPO-deficient BT3 E. coli (ΔPPO)
Assay: Tiafenacil tolerance of BT3 E. coli transformed with CyPPO10, CyPPO13 or AtPPO1 genes (pACBB vector)
Type: cell-based
Settings: tiafenacil 0 μM; PPO function complementation
Method: After transforming PPO-deficient BT3 E. coli (ΔPPO) with CyPPO10 or CyPPO13, the transformed BT3 (ΔPPO) was cultured on LB agar plates containing PPO-inhibiting herbicide to examine the growth level of the transformed BT3 (ΔPPO). BT3 (ΔPPO) strain was obtained from Hokkaido University (Japan). The BT3 (ΔPPO) strain is deficient in hemG-type PPO and has kanamycin tolerance (refer to “Watanabe et al., Dual targeting of spinach protoporphyrinogen oxidase II to mitochondria and chloroplasts by alternative use of two in-frame […], JBC 2001 276(23):20474-20481; Che et al., Molecular Characterization and Subcellular Localization of Protoporphyrinogen Oxidase in Spinach Chloroplasts, Plant Physiol. 2000 September; 124(1):59-70”).
The cloned plasmid was added to 100 μl of BT3 competent cell (Hokkaido University; Japan) respectively, thereby transforming by a heat shock method. The transformed E. coli with each PPO gene was cultured in LB (Luria-Bertani) agar media comprising Chloramphenicol (Duchefa).
For seed culture of E. coli transformed with respective genes, each single colony of E. coli transformant as provided above was cultured in 3 ml of LB broth containing chloramphenicol overnight (220 rpm, 37° C.), and 50 to 100 μl were subcultured in a new 3 ml of LB broth, and they were cultured until absorbance (OD600) became 0.5 to 1, and they were diluted with LB broth to absorbance (OD600) of 0.5. The diluted solution was serially diluted again 5 times by a factor of one tenth with LB broth. […] The LB Agar media were incubated at 37° C., under light condition, and level of inhibiting growth was observed after 16 to 20 hours of incubation.
Plant physiol. 2003 133:736-747).

Row | Molecule | Growth of BT3 transformant on medium containing no herbicide
1 | AtPPO1 WT: wild type Arabidopsis thaliana PPO1, PPO susceptible (SEQ ID NO: 5) (protein, listed as Arabidopsis thaliana, PEPTIDE (1)..(537) Wild type AtPPO1) MELSLLRPTTQSLLPSFSKPNLRLNVYKPLRLRCSVAGGPTVGSSKIEGGGGTTITTDCVIVGGGISGLCIAQALATKHPDAAPNLIVTEAKDRVGGNIITREENGFLWEEGPNSFQPSDPMLTMVVDSGLKDDLVLGDPTAPRFVLWNGKLRPVPSKLTDLPFFDLMSIGGKIRAGFGALGIRPSPPGREESVEEFVRRNLGDEVFERLIEPFCSGVYAGDPSKLSMKAAFGKVWKLEQNGGSIIGGTFKAIQERKNAPKAERDPRLPKPQGQTVGSFRKGLRMLPEAISARLGSKVKLSWKLSGITKLESGGYNLTYETPDGLVSVQSKSVVMTVPSHVASGLLRPLSESAANALSKLYYPPVAAVSISYPKEAIRTECLIDGELKGFGQLHPRTQGVETLGTIYSSSLFPNRAPPGRILLLNYIGGSTNTGILSKSEGELVEAVDRDLRKMLIKPNSTDPLKLGVRVWPQAIPQFLVGHFDILDTAKSSLTSSGYEGLFLGGNYVAGVALGRCVEGAYETAIEVNNFMSRYAYK | recovered
2 | AtPPO1 SLYM: mutated A. thaliana PPO1 with amino acid substitutions Y426M and S305L, PPO-inhibiting herbicide tolerant control (protein, Synthetic Mutant type AtPPO1) MELSLLRPTTQSLLPSFSKPNLRLNVYKPLRLRCSVAGGPTVGSSKIEGGGGTTITTDCVIVGGGISGLCIAQALATKHPDAAPNLIVTEAKDRVGGNIITREENGFLWEEGPNSFQPSDPMLTMVVDSGLKDDLVLGDPTAPRFVLWNGKLRPVPSKLTDLPFFDLMSIGGKIRAGFGALGIRPSPPGREESVEEFVRRNLGDEVFERLIEPFCSGVYAGDPSKLSMKAAFGKVWKLEQNGGSIIGGTFKAIQERKNAPKAERDPRLPKPQGQTVGSFRKGLRMLPEAISARLGSKVKLSWKLLGITKLESGGYNLTYETPDGLVSVQSKSVVMTVPSHVASGLLRPLSESAANALSKLYYPPVAAVSISYPKEAIRTECLIDGELKGFGQLHPRTQGVETLGTIYSSSLFPNRAPPGRILLLNMIGGSTNTGILSKSEGELVEAVDRDLRKMLIKPNSTDPLKLGVRVWPQAIPQFLVGHFDILDTAKSSLTSSGYEGLFLGGNYVAGVALGRCVEGAYETAIEVNNFMSRYAYK | recovered
